# According to article PMC6364133, “Selectivity of Dietary Phenolics for Inhibition of Human Monoamine Oxidases A and B” (BioMed Research International, 2019):
# Values joined by “and” are separate entries in the source; they are usually repeats but may differ in a detail not shown here. Equal values may be shown once.
# B1: human recombinant MAO-A (Homo sapiens) (protein)
# chain: MENQEKASIAGHMFDVVVIGGGISGLSAAKLLTEYGVSVLVLEARDRVGGRTYTIRNEHVDYVDVGGAYVGPTQNRILRLSKELGIETYKVNVSERLVQYVKGKTYPFRGAFPPVWNPIAYLDYNNLWRTIDNMGKEIPTDAPWEAQHADKWDKMTMKELIDKICWTKTARRFAYLFVNINVTSEPHEVSALWFLWYVKQCGGTTRIFSVTNGGQERKFVGGSGQVSERIMDLLGDQVKLNHPVTHVDQSSDNIIIETLNHEHYECKYVINAIPPTLTAKIHFRPELPAERNQLIQRLPMGAVIKCMMYYKEAFWKKKDYCGCMIIEDEDAPISITLDDTKPDGSLPAIMGFILARKADRLAKLHKEIRKKKICELYAKVLGSQEALHPVHYEEKNWCEEQYSGGCYTAYFPPGIMTQYGRVIRQPVGRIFFAGTETATKWSGYMEGAVEAGERAAREVLNGLGKVTEKDIWVQEPESKDVPAVEITHTFWERNLPSVSGLLKIIGFSTSVTALGFVLYKYKLLPRS
# notes: purchased BD Biosciences (San Jose, CA) or Corning Discovery Labware (Woburn, MA)
# B2: MAO-A (Homo sapiens) (protein)
# chain: B1 chain
# notes: as for B1
# B3: human recombinant MAO-B (Homo sapiens) (protein)
# chain: MSNKCDVVVVGGGISGMAAAKLLHDSGLNVVVLEARDRVGGRTYTLRNQKVKYVDLGGSYVGPTQNRILRLAKELGLETYKVNEVERLIHHVKGKSYPFRGPFPPVWNPITYLDHNNFWRTMDDMGREIPSDAPWKAPLAEEWDNMTMKELLDKLCWTESAKQLATLFVNLCVTAETHEVSALWFLWYVKQCGGTTRIISTTNGGQERKFVGGSGQVSERIMDLLGDRVKLERPVIYIDQTRENVLVETLNHEMYEAKYVISAIPPTLGMKIHFNPPLPMMRNQMITRVPLGSVIKCIVYYKEPFWRKKDYCGTMIIDGEEAPVAYTLDDTKPEGNYAAIMGFILAHKARKLARLTKEERLKKLCELYAKVLGSLEALEPVHYEEKNWCEEQYSGGCYTTYFPPGILTQYGRVLRQPVDRIYFAGTETATHWSGYMEGAVEAGERAAREILHAMGKIPEDEIWQSEPESVDVPAQPITTTFLERHLPSVPGLLRLIGLTTIFSATALGFLAHKRGLLVRV
# notes: as for B1
# B4: MAO-B (Homo sapiens) (protein)
# chain: B3 chain
# notes: as for B1
# How the values were obtained:
# Format in all cases: biochemical, human
# [1] = substrate: NCCC(=O)c1ccccc1N; assay: Kynuramine oxidative deamination kinetics (saturation, optimization) with MAO-A; conditions: other: kynuramine 2-500 μM, 15 min, mean ± SEM; pH 7.4; 37.0 °C
# Description: (§1) The optimized incubation time and human recombinant MAO concentration were selected in the linear range from the time-dependent and MAO concentration-dependent studies (Supplemental Data). Briefly, samples were prepared in potassium phosphate buffer (100 mM, pH 7.4) with a final concentration of MAO in the reaction solution of 0.01 mg/mL, incubated at 37°C for 15 min. Saturation of kynuramine metabolism with MAO-A/B was carried out at concentrations of 2, 5, 10, 25, 50, 100, 250, 500 μM. The enzymatic reactions (200μL) were stopped by 2 N NaOH (75 μL) followed with 70% perchloric acid (25 μL). The samples were vortexed and centrifuged for 5 min at 10,000×g. The supernatant was analyzed by HPLC as described above.
# (§2) GraphPad Prism 5 was applied to fit a Michaelis-Menten model to the data to obtain the Km values in the saturation experiments. In the screening experiments, significant differences between control and treated group were determined by a one-way ANOVA followed by Dunnett's posttest (p < 0.05). […] The maximum single doses are from published sources. The relevant GI concentration is the lesser of either solubility or the concentration after a single dose. […]
# (§3) Kynuramine (10 µM) was incubated with MAO-A (0.01 mg/mL) in 200 µL potassium phosphate buffer (100 mM, pH 7.4) for 10, 20, 30, 40, and 60 min. The formation of 4-hydroxyquinoline was analyzed after the enzymatic reaction. […]
# [2] = substrate: NCCC(=O)c1ccccc1N; assay: Inhibition mechanism studies (competition, time dependence) with MAO-A; conditions: other: competition study control, kynuramine 2-450 μM
# [3] = substrate: NCCC(=O)c1ccccc1N; assay: Kynuramine oxidative deamination kinetics (saturation, optimization) with MAO-B; conditions: other: kynuramine 2-500 μM, 15 min, mean ± SEM; pH 7.4; 37.0 °C
# Description: as §1, §2, §3
# [4] = substrate: NCCC(=O)c1ccccc1N; assay: Inhibition mechanism studies (competition, time dependence) with MAO-B; conditions: other: competition study control, kynuramine 2-450 μM
protein,measurement,setting,value
B1,Km,[1],23.1 ± 0.8 µM and 23 µM
same,Vmax,[1],10.2 ± 0.2 nmol/min/mg
B2,Km,[2],8.46 ± 1.56 µM
same,Vmax,[2],17.4 ± 0.7 nmol/min/mg protein
B3,Km,[3],18.0 ± 2.3 µM
same,Vmax,[3],7.35 ± 0.69 nmol/min/mg
B4,Km,[4],14.4 ± 1.2 µM
same,Vmax,[4],3.44 ± 0.07 nmol/min/mg protein
